The values that follow come from article PMC8688572 (The Journal of Biological Chemistry, 2021).

The data set concerns the molecule itself. Briefly: negative stain electron microscopy.

B1: zebrafish Impdh1a (544) (enzyme)
chain: not shown
For B1, the binding result was “binds”.
